Reference: PMC3949604 (Biochemical pharmacology, 2014)
Blank lines part the entries; values can stand above or below the binder they belong to.

Target: baculovirus expressed human Arnt (aryl hydrocarbon receptor nuclear translocator) (human, UniProt P27540 1-789)
Experiment: co-IP

Chain of baculovirus expressed human Arnt (aryl hydrocarbon receptor nuclear translocator) (P27540 whole entry): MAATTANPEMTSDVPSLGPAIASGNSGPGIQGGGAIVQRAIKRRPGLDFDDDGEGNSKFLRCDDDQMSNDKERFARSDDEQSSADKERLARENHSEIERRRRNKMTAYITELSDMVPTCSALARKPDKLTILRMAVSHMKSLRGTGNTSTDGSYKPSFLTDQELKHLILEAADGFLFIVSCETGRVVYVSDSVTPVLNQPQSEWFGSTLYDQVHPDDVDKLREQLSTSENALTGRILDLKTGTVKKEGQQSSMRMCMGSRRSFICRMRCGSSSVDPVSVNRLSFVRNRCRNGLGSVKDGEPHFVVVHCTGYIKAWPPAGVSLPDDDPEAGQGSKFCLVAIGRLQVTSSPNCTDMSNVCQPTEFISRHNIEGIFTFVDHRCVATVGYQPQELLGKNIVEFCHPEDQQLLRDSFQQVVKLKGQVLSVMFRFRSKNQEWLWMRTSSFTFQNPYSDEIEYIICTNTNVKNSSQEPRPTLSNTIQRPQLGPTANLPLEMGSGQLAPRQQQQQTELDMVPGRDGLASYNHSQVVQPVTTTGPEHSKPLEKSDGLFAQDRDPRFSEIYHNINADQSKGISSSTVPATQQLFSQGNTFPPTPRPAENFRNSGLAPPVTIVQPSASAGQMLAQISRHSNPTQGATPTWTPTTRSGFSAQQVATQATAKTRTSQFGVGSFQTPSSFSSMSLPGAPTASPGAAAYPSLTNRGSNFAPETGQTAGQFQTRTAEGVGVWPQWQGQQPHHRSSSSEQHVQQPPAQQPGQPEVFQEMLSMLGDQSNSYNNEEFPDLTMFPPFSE

percent of input co-immunoprecipitated: ~10 % input
B1: thioredoxin fusion of D3 (human AhR aa 191-295) (domain or fragment, UniProt P35869 191-295, looked up)
chain: EEATGLPQTVVCYNPDQIPPENSPLMERCFICRLRCLLDNSSGFLAMNFQGKLKYLHGQKKKGKDGSILPPQLALFAIATPLQPPSILEIRTKNFIFRTKHKLDF

percent of input co-immunoprecipitated: ~10 % input
B2: thioredoxin fusion of D2 (human AhR aa 84-192) (domain or fragment)
chain: not shown

percent of input co-immunoprecipitated: ~10 % input
B3: thioredoxin fusion of D1 (human AhR aa 84-295) (domain or fragment, UniProt P35869 84-295, looked up)
chain: DVALKSSPTERNGGQDNCRAANFREGLNLQEGEFLLQALNGFVLVVTTDALVFYASSTIQDYLGFQQSDVIHQSVYELIHTEDRAEFQRQLHWALNPSQCTESGQGIEEATGLPQTVVCYNPDQIPPENSPLMERCFICRLRCLLDNSSGFLAMNFQGKLKYLHGQKKKGKDGSILPPQLALFAIATPLQPPSILEIRTKNFIFRTKHKLDF

percent of input co-immunoprecipitated: > 10 % input
B4: thioredoxin fusion of CΔ553 (human AhR aa 1-295) (domain or fragment, UniProt P35869 1-295, looked up)
chain: MNSSSANITYASRKRRKPVQKTVKPIPAEGIKSNPSKRHRDRLNTELDRLASLLPFPQDVINKLDKLSVLRLSVSYLRAKSFFDVALKSSPTERNGGQDNCRAANFREGLNLQEGEFLLQALNGFVLVVTTDALVFYASSTIQDYLGFQQSDVIHQSVYELIHTEDRAEFQRQLHWALNPSQCTESGQGIEEATGLPQTVVCYNPDQIPPENSPLMERCFICRLRCLLDNSSGFLAMNFQGKLKYLHGQKKKGKDGSILPPQLALFAIATPLQPPSILEIRTKNFIFRTKHKLDF
